Changes are numbered by the printed parent chain. Numbers in names are those of the source. Where “and” joins values, the source holds several entries; their conditions need not be identical. Equal values may be shown once.
What was measured:
[1] = molecular target: CXCL8 receptors on bovine peripheral blood neutrophils; test: 1000 ng/ml biotCXCL8 on medium-treated bovine neutrophils; streptavidin-enzyme and ABTS; ELISA plate reader
[2] = molecular target: CXCL8 receptors on bovine peripheral blood neutrophils; test: displacement of 20 pM 125I-CXCL8 from 10^6 bovine neutrophils, 45 min on ice
[3] = molecular target: CXCL8 receptors on bovine peripheral blood neutrophils; test: biotCXCL8 binding inhibition on bovine neutrophils; 10 ng/ml unlabeled CXCL8 2 h at 4 C, wash, then 1 ug/ml biotCXCL8; cell ELISA
[4] = molecular target: CXCL8 receptors on bovine peripheral blood neutrophils; test: biotCXCL8 binding inhibition on bovine neutrophils; 10 ng/ml analogue 2 h at 4 C, wash, then 1 ug/ml biotCXCL8; cell ELISA
[5] = molecular target: CXCL8 receptors on bovine peripheral blood neutrophils; test: cell-based or functional assay
[6] = molecular target: CXCL8 receptors on bovine peripheral blood neutrophils; test: displacement of 20 pM 125I-CXCL8 from bovine neutrophils; reference is unlabeled wildtype CXCL8

biotinylated CXCL8 (from UniProt P79255 23-101) (ligand)
OD405 [1]: 0.5 to 0.6 OD405

bovine CXCL8 (wild type, unlabeled) (from UniProt P79255 23-101) (ligand)
IC50 [2]: 0.12 nM
percent of ^biotCXCL8 binding blocked [3]: 30%

B1: bovine CXCL8(3-74)K11R/G31P (ligand)
chain: TELRCQCIRTHSTPFHPKFIKELRVIESPPHCENSEIIVKLTNGNEVCLNPKEKWVQKVVQVFVKRAEKQDP
percent of ^biotCXCL8 binding blocked [4]: 95%
IC50 [2]: 0.004 nM
IC50, inhibition of bovine neutrophil chemotaxis to 1 µg/ml (129 nM) CXCL8 [5]: 0.11 nM
agonist activity: chemotaxis of bovine neutrophils to 100 ng/ml analogue, as percent of the response to 1 ng/ml CXCL8 [5]: 13.9%
agonist activity: chemotaxis of bovine neutrophils to 100 ng/ml analogue, as percent of the response to 100 ng/ml CXCL8 [5]: 5.4%
concentration for complete blocking of bovine neutrophil chemotaxis to 1 µg/ml CXCL8 [5]: 10 nM
concentration for complete inhibition of bovine neutrophil chemotaxis to human CXCL5, CXCL1 or CXCL8 [5]: 3 nM and 20 nM
concentration reducing bovine neutrophil chemotaxis to 1 ng/ml hCXCL1 to 50% [5]: 0.26 nM
concentration reducing bovine neutrophil chemotaxis to 1 ng/ml hCXCL5 to 50% [5]: 0.06 nM
concentration reducing bovine neutrophil chemotaxis to 10 ng/ml hCXCL8 by 50% [5]: 0.04 nM
reduction of bovine neutrophil chemotactic response to 1 µg/ml (129 nM) CXCL8 by 12.9 pM analogue [5]: 33%
fold more effective than wildtype CXCL8 in inhibiting 125I-CXCL8 binding [6]: 100 fold

B2: bovine CXCL8(3-74)K11R/P32G (ligand)
chain: B1 chain with P29G, P30G
percent of ^biotCXCL8 binding blocked [4]: 48%
agonist activity: chemotaxis of bovine neutrophils to 100 ng/ml analogue, as percent of the CXCL8 response [5]: 38.3%

From patent US20090270318A1
